From PMC12990809

Assays:
Assay in all cases: pulldown
[1] = molecular target: PGTG_00837 (Puccinia graminis) (UniProt E3JTY5); details: 20 nM protein, 1.5 uM RNA pool; 20 mM HEPES pH 7.8, 70 mM KCl, 10 mM NaCl, 10% glycerol, 2 mM DTT, 0.1 ug/uL BSA; 30 min, 4 C
[2] = molecular target: T1, B0280.17 (Caenorhabditis elegans) (UniProt Q2V4X2); details: 20 nM protein, 1.5 uM RNA pool; 20 mM HEPES pH 7.8, 70 mM KCl, 10 mM NaCl, 10% glycerol, 2 mM DTT, 0.1 ug/uL BSA; 30 min, 4 C
T1 sequence: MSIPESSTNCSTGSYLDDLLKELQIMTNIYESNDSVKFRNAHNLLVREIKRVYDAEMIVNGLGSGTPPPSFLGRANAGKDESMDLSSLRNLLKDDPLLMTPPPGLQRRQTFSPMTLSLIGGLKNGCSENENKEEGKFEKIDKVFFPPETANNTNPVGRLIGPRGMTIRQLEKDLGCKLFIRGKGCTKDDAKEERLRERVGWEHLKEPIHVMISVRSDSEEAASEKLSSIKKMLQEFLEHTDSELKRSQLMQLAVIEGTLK

[3] = molecular target: T2, UBA2B (Arabidopsis thaliana) (UniProt O80678); details: 20 nM protein, 1.5 uM RNA pool; 20 mM HEPES pH 7.8, 70 mM KCl, 10 mM NaCl, 10% glycerol, 2 mM DTT, 0.1 ug/uL BSA; 30 min, 4 C
T2 sequence: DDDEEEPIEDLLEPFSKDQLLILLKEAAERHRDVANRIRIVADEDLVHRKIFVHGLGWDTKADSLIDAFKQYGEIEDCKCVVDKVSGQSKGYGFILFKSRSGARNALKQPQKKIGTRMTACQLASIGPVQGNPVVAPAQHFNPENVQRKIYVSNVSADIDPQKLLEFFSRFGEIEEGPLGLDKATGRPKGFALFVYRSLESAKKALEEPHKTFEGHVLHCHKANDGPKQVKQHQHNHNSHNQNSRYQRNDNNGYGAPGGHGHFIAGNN

[4] = molecular target: T3, HNRNPL C396G (Homo sapiens) (UniProt P14866); details: 20 nM protein, 1.5 uM RNA pool; 20 mM HEPES pH 7.8, 70 mM KCl, 10 mM NaCl, 10% glycerol, 2 mM DTT, 0.1 ug/uL BSA; 30 min, 4 C (protocol of this paper; not …); cited from earlier work
T3 sequence: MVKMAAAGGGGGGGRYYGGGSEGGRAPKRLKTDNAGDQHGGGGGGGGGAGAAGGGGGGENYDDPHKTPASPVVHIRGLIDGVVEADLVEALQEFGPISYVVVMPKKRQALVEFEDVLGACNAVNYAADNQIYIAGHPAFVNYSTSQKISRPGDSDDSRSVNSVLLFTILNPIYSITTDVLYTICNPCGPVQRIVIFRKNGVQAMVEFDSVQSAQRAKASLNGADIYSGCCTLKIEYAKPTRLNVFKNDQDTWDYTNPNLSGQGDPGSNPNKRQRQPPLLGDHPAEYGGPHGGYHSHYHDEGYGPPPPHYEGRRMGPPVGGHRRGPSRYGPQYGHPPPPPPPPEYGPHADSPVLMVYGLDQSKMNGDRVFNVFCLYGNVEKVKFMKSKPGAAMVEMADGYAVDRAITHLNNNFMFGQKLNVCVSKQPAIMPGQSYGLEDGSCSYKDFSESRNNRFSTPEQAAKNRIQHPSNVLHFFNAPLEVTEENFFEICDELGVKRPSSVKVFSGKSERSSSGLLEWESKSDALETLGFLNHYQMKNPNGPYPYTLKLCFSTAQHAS

[5] = molecular target: fmr1 (Xenopus tropicalis) (UniProt Q6GLC9); details: 20 nM protein, 1.5 uM RNA pool; 20 mM HEPES pH 7.8, 70 mM KCl, 10 mM NaCl, 10% glycerol, 2 mM DTT, 0.1 ug/uL BSA; 30 min, 4 C
Sequence of fmr1 (Xenopus tropicalis) (Q6GLC9 170-401): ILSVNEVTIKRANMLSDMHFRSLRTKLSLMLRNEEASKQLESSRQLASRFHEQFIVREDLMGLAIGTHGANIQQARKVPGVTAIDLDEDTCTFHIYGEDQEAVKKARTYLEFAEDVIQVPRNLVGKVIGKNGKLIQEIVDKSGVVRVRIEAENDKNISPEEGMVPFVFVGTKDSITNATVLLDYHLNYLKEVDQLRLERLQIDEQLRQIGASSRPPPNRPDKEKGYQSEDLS

[6] = molecular target: T4, PK00513.1 (Cannabis sativa) (UniProt A0A7J6DZZ3); details: 20 nM protein, 1.5 uM RNA pool; 20 mM HEPES pH 7.8, 70 mM KCl, 10 mM NaCl, 10% glycerol, 2 mM DTT, 0.1 ug/uL BSA; 30 min, 4 C
T4 sequence: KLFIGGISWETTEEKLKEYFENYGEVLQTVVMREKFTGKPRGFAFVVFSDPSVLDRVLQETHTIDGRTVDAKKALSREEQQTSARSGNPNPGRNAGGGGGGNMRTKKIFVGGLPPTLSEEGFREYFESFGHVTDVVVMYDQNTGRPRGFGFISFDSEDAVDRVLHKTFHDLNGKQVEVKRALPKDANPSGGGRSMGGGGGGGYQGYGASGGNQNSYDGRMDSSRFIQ

[7] = system: T5, PK23097.1 (Cannabis sativa); details: 20 nM protein, 1.5 uM RNA pool; 20 mM HEPES pH 7.8, 70 mM KCl, 10 mM NaCl, 10% glycerol, 2 mM DTT, 0.1 ug/uL BSA; 30 min, 4 C
T5 sequence: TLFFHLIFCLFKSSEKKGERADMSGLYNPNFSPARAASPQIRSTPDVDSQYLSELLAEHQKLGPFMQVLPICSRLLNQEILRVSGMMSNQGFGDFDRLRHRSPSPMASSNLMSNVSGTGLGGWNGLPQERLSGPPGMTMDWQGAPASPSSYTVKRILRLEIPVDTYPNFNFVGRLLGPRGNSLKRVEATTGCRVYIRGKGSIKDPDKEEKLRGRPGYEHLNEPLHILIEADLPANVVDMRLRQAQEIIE

[8] = molecular target: T6, pab-1 (Caenorhabditis elegans) (UniProt Q9U302); details: 20 nM protein, 1.5 uM RNA pool; 20 mM HEPES pH 7.8, 70 mM KCl, 10 mM NaCl, 10% glycerol, 2 mM DTT, 0.1 ug/uL BSA; 30 min, 4 C
T6 sequence: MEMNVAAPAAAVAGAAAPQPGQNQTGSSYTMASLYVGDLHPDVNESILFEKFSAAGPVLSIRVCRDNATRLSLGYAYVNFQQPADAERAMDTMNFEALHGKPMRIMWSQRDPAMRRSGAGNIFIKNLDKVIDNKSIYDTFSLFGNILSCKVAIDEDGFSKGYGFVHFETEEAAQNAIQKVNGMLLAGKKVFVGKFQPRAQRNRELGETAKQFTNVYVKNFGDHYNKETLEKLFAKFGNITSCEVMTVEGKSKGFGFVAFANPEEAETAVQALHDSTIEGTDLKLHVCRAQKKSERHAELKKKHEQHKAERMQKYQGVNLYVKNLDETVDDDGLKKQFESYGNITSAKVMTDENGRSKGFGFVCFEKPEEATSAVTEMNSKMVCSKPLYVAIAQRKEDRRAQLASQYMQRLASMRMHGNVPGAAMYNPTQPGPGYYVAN

Work on GGUGGA [RNAcompete motif RNCMPT00476] yielded a binding signal (z-score (mean of top ten 7-mers)) [1] of 6.99.
Sequence ACUAACA [RNAcompete motif RNCMPT00467] has a binding signal (z-score (mean of top ten 7-mers)) [2] of 10.4.
For UUUUU [RNAcompete motif RNCMPT00475], the binding signal (z-score (mean of top ten 7-mers)) [3] was 10.7.
In the case of ACACACAA [RNAcompete motif RNCMPT00027], the binding signal (z-score (mean of top ten 7-mers)) [4] is listed as 8.6.
In the case of AAGACAA [RNAcompete motif RNCMPT00474], the binding signal (z-score (mean of top ten 7-mers)) [5] was 6.01.
GUAGGAA [RNAcompete motif RNCMPT00462] gave a binding signal (z-score (mean of top ten 7-mers)) [6] of 10.4.
Sequence ACUAAC [RNAcompete motif RNCMPT00465] has a binding signal (z-score (mean of top ten 7-mers)) [7] of 12.4.
Work on AAAAAA [RNAcompete motif RNCMPT00471] yielded a binding signal (z-score (mean of top ten 7-mers)) [8] of 12.5.
